How the values were obtained:
[1] = molecular target: T1, human Collagen type II (Millipore CC052) (human, UniProt P02458 182-1241, limits assumed); assay: SPR (BIAcore T200), collagen II amine-coupled on chip, construct injected 1.23-900 nM, 25 C, 1:1 Langmuir fit
T1 construct: Bought material, immobilised by amine coupling on the sensor chip; also called human collagen II
Procedure: (§1) Binding kinetics of anti-collagen antibodies to human Collage type II (Millipore CC052) and porcine Collagen type II (USBiological C7510-31) was investigated by surface plasmon resonance using a BIAcore T200 instrument (GE Healthcare). All experiments were performed at 25° C. using HBS-P (10 mM […], 140 mM NaCl, 0.05% Tween 20 pH 7.4) as running and dilution buffer. Collagen type II was immobilized on a Series S CMS Sensor Chip (GE Healthcare) using standard amine coupling chemistry. Anti-Collagen antibodies were injected for 180 s with concentrations from 1.23 up to 900 nM (1:3 dilution series) onto the surface (association phase). The dissociation phase was monitored for 600 sec by washing with running buffer. The surface was regenerated by injecting 0.85% H₃PO₄ for 60 sec. Bulk refractive index differences were corrected by subtracting the response obtained from a mock surface. Blank injections were subtracted (double referencing). The derived curves were fitted to a 1:1 Langmuir binding model using the BIAevaluation software.

[2] = molecular target: T2, porcine Collagen type II (USBiological C7510-31) (porcine); assay: as above
T2 construct: Bought material, immobilised by amine coupling on the sensor chip; also called porcine collagen II
Procedure: as §1

[3] = molecular target: collagen (ECM compound added to PBS in the FCS diffusion test solution); assay: cell-based or functional assay

T1 sequence (P02458 182-1241 limits assumed): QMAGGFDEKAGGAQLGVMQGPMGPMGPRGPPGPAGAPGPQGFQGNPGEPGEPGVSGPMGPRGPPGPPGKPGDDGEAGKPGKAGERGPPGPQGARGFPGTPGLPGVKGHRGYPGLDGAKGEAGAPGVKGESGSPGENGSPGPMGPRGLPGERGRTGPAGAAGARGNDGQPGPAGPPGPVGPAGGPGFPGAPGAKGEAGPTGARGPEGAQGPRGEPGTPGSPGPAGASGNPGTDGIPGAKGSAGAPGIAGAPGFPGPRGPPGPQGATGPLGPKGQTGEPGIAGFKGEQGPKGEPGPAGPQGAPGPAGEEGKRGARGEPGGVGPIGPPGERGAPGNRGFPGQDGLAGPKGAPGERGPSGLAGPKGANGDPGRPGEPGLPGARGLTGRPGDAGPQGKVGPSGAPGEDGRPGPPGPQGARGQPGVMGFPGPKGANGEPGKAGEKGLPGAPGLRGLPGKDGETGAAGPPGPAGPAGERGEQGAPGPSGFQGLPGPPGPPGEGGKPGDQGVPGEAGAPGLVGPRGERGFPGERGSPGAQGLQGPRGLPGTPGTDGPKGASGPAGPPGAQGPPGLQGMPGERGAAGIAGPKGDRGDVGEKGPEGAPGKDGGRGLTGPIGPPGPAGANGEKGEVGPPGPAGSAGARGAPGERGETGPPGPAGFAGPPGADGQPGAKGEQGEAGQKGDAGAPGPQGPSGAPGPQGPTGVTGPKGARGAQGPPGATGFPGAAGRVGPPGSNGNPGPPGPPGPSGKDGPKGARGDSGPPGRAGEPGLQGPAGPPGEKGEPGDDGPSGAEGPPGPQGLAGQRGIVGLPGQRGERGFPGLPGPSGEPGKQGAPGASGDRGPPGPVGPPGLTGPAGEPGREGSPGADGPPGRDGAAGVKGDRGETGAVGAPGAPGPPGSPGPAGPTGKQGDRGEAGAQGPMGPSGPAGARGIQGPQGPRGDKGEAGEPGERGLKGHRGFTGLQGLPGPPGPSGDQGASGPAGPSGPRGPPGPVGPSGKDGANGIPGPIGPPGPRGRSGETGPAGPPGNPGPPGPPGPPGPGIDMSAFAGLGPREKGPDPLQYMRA

B1: FAB-COLL-II: anti-digoxigenin antibody Fab conjugated to anti-collagen II antibody scFv II (bispecific antibody)
heavy: QVQLVESGGGLVKPGGSLRLSCAASGFTFSDYAMSWIRQAPGKGLEWVSSINIGATYIYYADSVKGRFTISRDNAKNSLYLQMNSLRAEDTAVYYCARPGSPYEYDKAYYSMAYWGQGTTVTVSSASTKGPSVFPLAPSSKSTSGGTAALGCLVKDYFPEPVTVSWNSGALTSGVHTFPAVLQSSGLYSLSSVVTVPSSSLGTQTYICNVNHKPSNTKVDKKVEPKSCGGGGSGGGGSEIVLTQSPATLSLSPGERATLSCRASQSVDDWLAWYQQKPGQAPRLLIYDASNRATGIPARFSGSGSGTDFTLTISSLEPEDFAVYYCQQGDTAPITFGQGTKVEIKGGGGSGGGGSGGGGSGGGGSQVQLVQSGAEVKKPGSSVKVSCKASGGTFSSYAISWVRQAPGQGLEWMGGIIPIFGTANYAQKFQGRVTITADESTSTAYMELSSLRSEDTAVYYCARNIVGDYLLDYWGQGTLVTVSS
light: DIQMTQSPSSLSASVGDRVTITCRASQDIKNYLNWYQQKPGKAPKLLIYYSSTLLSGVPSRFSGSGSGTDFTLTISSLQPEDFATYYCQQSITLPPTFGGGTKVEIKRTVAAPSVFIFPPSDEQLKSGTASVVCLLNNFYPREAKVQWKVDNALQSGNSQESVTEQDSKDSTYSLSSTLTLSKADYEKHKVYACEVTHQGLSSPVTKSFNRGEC
notes: Fab-scFv fusion; also called FAB-COLL-II (8 nM)
In the case of B1, the Kd [1] is reported as 15 nM, the Kd [2] is reported as 50 nM and the “diffusion rate FCS (increase in PBS comprising ECM compound at equimolar concentration compared to PBS alone)” value [3] is reported as 260%.

B2: FAB-COLL-III: anti-digoxigenin antibody Fab conjugated to anti-collagen II antibody scFv III (bispecific antibody)
heavy: QVQLVESGGGLVKPGGSLRLSCAASGFTFSDYAMSWIRQAPGKGLEWVSSINIGATYIYYADSVKGRFTISRDNAKNSLYLQMNSLRAEDTAVYYCARPGSPYEYDKAYYSMAYWGQGTTVTVSSASTKGPSVFPLAPSSKSTSGGTAALGCLVKDYFPEPVTVSWNSGALTSGVHTFPAVLQSSGLYSLSSVVTVPSSSLGTQTYICNVNHKPSNTKVDKKVEPKSCGGGGSGGGGSEIVLTQSPATLSLSPGERATLSCRASQSVADWLAWYQQKPGQAPRLLIYDASNRATGIPARFSGSGSGTDFTLTISSLEPEDFAVYYCQQYDGWPITFGQGTKVEIKGGGGSGGGGSGGGGSGGGGSQVQLVQSGAEVKKPGSSVKVSCKASGGTFSSYAISWVRQAPGQGLEWMGGIIPIFGTANYAQKFQGRVTITADESTSTAYMELSSLRSEDTAVYYCARHLYYMLDYWGQGTLVTVSS
light: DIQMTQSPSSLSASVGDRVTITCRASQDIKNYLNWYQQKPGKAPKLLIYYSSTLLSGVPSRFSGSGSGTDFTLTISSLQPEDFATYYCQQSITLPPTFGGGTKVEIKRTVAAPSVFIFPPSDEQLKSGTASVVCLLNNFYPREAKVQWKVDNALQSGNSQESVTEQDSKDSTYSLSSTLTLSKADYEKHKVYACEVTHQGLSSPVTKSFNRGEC
notes: Fab-scFv fusion; also called FAB-COLL-III (8 nM)
With B2 the Kd [1] was 180 nM, the Kd [2] was 342 nM and the “diffusion rate FCS (increase in PBS comprising ECM compound at equimolar concentration compared to PBS alone)” value [3] was 40%.

B3: FAB-COLL-I: anti-digoxigenin antibody Fab conjugated to anti-collagen II antibody scFv I (bispecific antibody)
heavy: QVQLVESGGGLVKPGGSLRLSCAASGFTFSDYAMSWIRQAPGKGLEWVSSINIGATYIYYADSVKGRFTISRDNAKNSLYLQMNSLRAEDTAVYYCARPGSPYEYDKAYYSMAYWGQGTTVTVSSASTKGPSVFPLAPSSKSTSGGTAALGCLVKDYFPEPVTVSWNSGALTSGVHTFPAVLQSSGLYSLSSVVTVPSSSLGTQTYICNVNHKPSNTKVDKKVEPKSCGGGGSGGGGSEIVLTQSPATLSLSPGERATLSCRASQSVRDFLAWYQQKPGQAPRLLIYGASNRATGIPARFSGSGSGTDFTLTISSLEPEDFAVYYCQQRGSAPLTFGQGTKVEIKGGGGSGGGGSGGGGSGGGGSQVQLVQSGAEVKKPGSSVKVSCKASGGTFSSYAISWVRQAPGQGLEWMGGIIPIFGTANYAQKFQGRVTITADESTSTAYMELSSLRSEDTAVYYCARDPNGNIVLSEYFDYWGQGTLVTVSS
light: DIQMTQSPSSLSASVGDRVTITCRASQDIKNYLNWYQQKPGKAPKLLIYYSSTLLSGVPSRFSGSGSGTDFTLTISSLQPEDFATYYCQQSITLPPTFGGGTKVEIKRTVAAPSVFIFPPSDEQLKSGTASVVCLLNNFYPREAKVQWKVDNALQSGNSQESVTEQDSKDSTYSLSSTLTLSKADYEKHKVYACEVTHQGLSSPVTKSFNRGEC
notes: Fab-scFv fusion; also called FAB-COLL-I (2 nM)
B3 was tested, and the Kd [1] was 30 nM, the Kd [2] was 56 nM and the “diffusion rate FCS (increase in PBS comprising ECM compound at equimolar concentration compared to PBS alone)” value [3] was 180%.

Reference: patent publication US20190225676A1 (Hoffmann-La Roche, published 2019)
